Data taken from patent US7074589.

Legend:
[1] = target: SRp30a (UniProt Q6PDM2)
[2] = target: SRp30b (UniProt Q62093)
[3] = target: T1, SRp20 (UniProt P84104)
T1 sequence: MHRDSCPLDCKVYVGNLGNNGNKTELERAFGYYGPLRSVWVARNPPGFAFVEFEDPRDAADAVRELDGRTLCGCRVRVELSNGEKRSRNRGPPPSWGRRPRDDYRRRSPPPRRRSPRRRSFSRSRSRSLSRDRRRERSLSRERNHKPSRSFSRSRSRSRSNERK

[4] = target: T2, SRp40 (UniProt O35326)
T2 sequence: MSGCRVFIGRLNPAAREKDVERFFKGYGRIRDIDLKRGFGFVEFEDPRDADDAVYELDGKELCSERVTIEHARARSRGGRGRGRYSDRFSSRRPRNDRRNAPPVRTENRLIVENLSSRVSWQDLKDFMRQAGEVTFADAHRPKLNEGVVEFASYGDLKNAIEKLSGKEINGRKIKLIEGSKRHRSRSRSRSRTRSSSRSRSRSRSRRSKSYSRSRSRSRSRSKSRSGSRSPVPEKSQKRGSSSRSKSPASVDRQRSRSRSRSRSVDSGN

[5] = target: T3, SRp55 (UniProt Q3TWW8)
T3 sequence: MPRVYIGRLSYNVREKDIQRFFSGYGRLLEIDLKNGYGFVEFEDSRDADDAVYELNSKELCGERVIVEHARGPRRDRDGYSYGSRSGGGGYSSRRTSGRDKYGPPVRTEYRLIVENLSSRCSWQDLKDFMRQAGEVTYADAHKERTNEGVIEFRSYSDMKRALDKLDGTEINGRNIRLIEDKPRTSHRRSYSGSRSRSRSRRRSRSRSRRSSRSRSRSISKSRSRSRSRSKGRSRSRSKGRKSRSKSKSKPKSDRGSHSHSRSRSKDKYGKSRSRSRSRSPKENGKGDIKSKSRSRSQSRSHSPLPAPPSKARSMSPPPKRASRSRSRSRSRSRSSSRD

Sequence of SRp30b (Q62093 2-221): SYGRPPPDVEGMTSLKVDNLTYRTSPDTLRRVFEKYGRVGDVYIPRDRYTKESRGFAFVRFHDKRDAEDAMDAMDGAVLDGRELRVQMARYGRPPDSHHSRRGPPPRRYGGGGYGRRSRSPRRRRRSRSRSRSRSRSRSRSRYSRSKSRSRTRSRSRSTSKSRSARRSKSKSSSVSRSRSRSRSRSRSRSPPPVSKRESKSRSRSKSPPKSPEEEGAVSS
Sequence of SRp30a (Q6PDM2 2-248): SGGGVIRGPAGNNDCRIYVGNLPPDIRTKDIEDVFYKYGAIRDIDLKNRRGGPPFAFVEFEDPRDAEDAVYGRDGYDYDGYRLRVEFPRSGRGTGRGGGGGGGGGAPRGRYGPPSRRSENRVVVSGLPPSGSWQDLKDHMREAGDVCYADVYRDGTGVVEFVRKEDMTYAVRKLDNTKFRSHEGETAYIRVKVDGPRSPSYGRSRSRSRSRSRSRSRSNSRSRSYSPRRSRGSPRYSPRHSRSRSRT

Substance	phosphorylation of SR proteins, in vitro kinase assay with gamma-32P-ATP [1]	phosphorylation of SR proteins, in vitro kinase assay with gamma-32P-ATP [2]	phosphorylation of SR proteins, in vitro kinase assay with gamma-32P-ATP [3]	phosphorylation of SR proteins, in vitro kinase assay with gamma-32P-ATP [4]	phosphorylation of SR proteins, in vitro kinase assay with gamma-32P-ATP [5]
GST-mCLK2 fusion protein	All mCLK kinases were able to phosphorylate SRp2O, SRp3Oa and to a lesser extent SRp4O and SRp55	mCLK2 and mCLK3 phosphorylated both with almost equal efficiency	All mCLK kinases were able to phosphorylate SRp2O, SRp3Oa and to a lesser extent SRp4O and SRp55	All mCLK kinases were able to phosphorylate SRp2O, SRp3Oa and to a lesser extent SRp4O and SRp55	All mCLK kinases were able to phosphorylate SRp2O, SRp3Oa and to a lesser extent SRp4O and SRp55
GST-mCLK3 fusion protein	All mCLK kinases were able to phosphorylate SRp2O, SRp3Oa and to a lesser extent SRp4O and SRp55	mCLK2 and mCLK3 phosphorylated both with almost equal efficiency	All mCLK kinases were able to phosphorylate SRp2O, SRp3Oa and to a lesser extent SRp4O and SRp55	All mCLK kinases were able to phosphorylate SRp2O, SRp3Oa and to a lesser extent SRp4O and SRp55	All mCLK kinases were able to phosphorylate SRp2O, SRp3Oa and to a lesser extent SRp4O and SRp55
GST-mCLK4 fusion protein	All mCLK kinases were able to phosphorylate SRp2O, SRp3Oa and to a lesser extent SRp4O and SRp55	mCLK1 and mCLK4 phosphorylated SRp3Oa (upper band) more strongly than SRp3Ob	All mCLK kinases were able to phosphorylate SRp2O, SRp3Oa and to a lesser extent SRp4O and SRp55	All mCLK kinases were able to phosphorylate SRp2O, SRp3Oa and to a lesser extent SRp4O and SRp55	All mCLK kinases were able to phosphorylate SRp2O, SRp3Oa and to a lesser extent SRp4O and SRp55
